Assays:
[1] = target: T1, human RYK on the surface of human tumor cell lines (human, UniProt P34925 46-607); experiment: flow cytometry, HT29 cells (colon), 5 ug/ml 2-D11-Alexa647
T1 construct: whole, on cells; Endogenous expression
Description: (§1) Table 1 provides the flow cytometry data on various cancer cell lines stained with fluorochrome-conjugated 2-D11, as depicted in FIG. 8. The name of each cell line is listed in the first column and the tissue of origin is listed in the second column. Binding of the 2-D11 mAb to human RYK was assessed by flow cytometric staining and analysis by staining on ice for 20 minutes with 5 μg/ml of 2-D11 anti-human RYK-Alexa647 conjugated mAb or equal amounts of isotype matched control mAb, washed, and analyzed. The median fluorescence intensity (MFI) of 2-D11 stained cells is listed in the middle column and the MFI of isotype control stained cells are listed in the in the adjacent column. Cell lines were scored as “++”, “+”, or neg (unmarked with “+”) lines based on the ratio of median fluorescence intensity (MFI) of stained cells relative to the MFI of isotype control stained cells (MFIR).
(§2) The name of each cell line is listed in the first column and the tissue of origin is listed in the second column. Binding of the 2-D11 mAb to human RYK was assessed by flow cytometric staining and analysis by staining on ice for 20 minutes with 5 μg/ml of 2-D11 anti-human RYK-Alexa647 conjugated mAb or equal amounts of isotype matched control mAb, washed and analyzed. […]

[2] = target: T1, human RYK on the surface of human tumor …; experiment: flow cytometry, HS683 cells (brain), 5 ug/ml 2-D11-Alexa647
Description: as §1, §2

[3] = target: T2, recombinant extracellular protein of mouse RYK (mouse, UniProt Q01887 35-211); experiment: immunoblot of recombinant extracellular protein on nylon membrane
T2 construct: also called mRYK; not shown: rabbit IgG tag for purification
Description: FIG. 4A illustrates experiments in which binding of 2-D11, 7-H10, 3-C12, 11-E9, 6-B5, 6-D10 and sheep anti-RYK mAb was assessed using recombinant human RYK proteins (SEQ ID NO:129) in which one amino acid that differs between human and mouse RYK within the extracellular domain was replaced with the corresponding amino acid of mouse RYK. Each recombinant protein was transferred onto nylon membrane, probed with the indicated anti-RYK mAb or Sheep anti-RYK Ab, and detected with an anti-mouse IgG or donkey-anti-sheep antibody conjugated with horse radish peroxidase. […]
The anti-human RYK mAbs, 2-D11 and 7-H10, appear specific for an amino terminal epitope of human Ryk (residues 46-57) that are distinct from those in mouse Ryk (FIG. 3); these mAbs also bind mutant forms of Ryk containing amino acid substitutions in human Ryk at positions that differ from that of the highly homologous mouse Ryk to assimilate mouse Ryk at the site of substitution, with amino acid sequence shown in FIG. 3, as shown by immunoblot analyses of recombinant extracellular proteins of human or mouse or each of the various mutant forms of human Ryk (FIG. 4) For this, the binding of 2-D11, 7-H10, or Sheep anti-RYK mAb was assessed using recombinant extracellular RYK proteins as specified in the Key. […]

[4] = target: T1, human RYK on the surface of human tumor …; experiment: flow cytometry, NCI H226 cells (lung), 5 ug/ml 2-D11-Alexa647
Description: as §1, §2

[5] = target: T1, human RYK on the surface of human tumor …; experiment: flow cytometry, REH cells (ALL), 5 ug/ml 2-D11-Alexa647; line unmarked (no staining)
Description: as §1, §2

[6] = target: T1, human RYK on the surface of human tumor …; experiment: flow cytometry, JURKAT cells (T-cell ALL), 5 ug/ml 2-D11-Alexa647; line unmarked (no staining)
Description: as §1, §2

T1 sequence (P34925 46-607 limits assumed, form in doubt): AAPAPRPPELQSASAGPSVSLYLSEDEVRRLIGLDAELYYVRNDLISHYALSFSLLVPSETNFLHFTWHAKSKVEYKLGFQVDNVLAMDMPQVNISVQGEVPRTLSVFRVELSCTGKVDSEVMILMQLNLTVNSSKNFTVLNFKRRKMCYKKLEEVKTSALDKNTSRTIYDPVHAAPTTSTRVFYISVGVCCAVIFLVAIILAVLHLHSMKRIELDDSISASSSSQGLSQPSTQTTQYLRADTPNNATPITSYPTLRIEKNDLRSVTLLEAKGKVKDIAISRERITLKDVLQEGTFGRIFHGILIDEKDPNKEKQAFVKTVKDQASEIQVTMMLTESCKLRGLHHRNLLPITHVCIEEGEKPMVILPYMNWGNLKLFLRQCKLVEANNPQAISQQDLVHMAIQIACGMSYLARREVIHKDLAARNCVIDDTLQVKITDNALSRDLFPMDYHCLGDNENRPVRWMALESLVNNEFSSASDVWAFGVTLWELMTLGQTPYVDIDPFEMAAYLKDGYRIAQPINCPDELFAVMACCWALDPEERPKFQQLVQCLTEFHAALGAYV
T2 sequence (Q01887 35-211): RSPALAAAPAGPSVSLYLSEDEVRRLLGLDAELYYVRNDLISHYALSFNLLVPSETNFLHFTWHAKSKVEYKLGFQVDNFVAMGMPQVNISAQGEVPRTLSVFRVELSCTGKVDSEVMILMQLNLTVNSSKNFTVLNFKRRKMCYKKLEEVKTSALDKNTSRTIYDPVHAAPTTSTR

B1: 2-D11 anti-human RYK mAb (antibody, V domains shown)
VH: QVQLKESGPGLVAPSQSLSITCSVSGFSLNDYGVNWVRQPPGKDLEWLGMIWGDGVTEYNSTLKSRLSISKDNSKSQVFLKMNNLQTEDTARYYCVRQGSGVWFAHWGQGTLVSVSS
VL: DVLVTQTPLSLPVSLGDQASISCRSSQTIVHSNGNTYLEWYLQKPGQSPKLLIYKVSNRFSGVPDRFSGSGSGTDFTLKISRVEAEDLGIYYCFQGSHVPYTFGGGTKLEIK
notes: Mouse hybridoma mAb, kappa light chain, detected with anti-mouse IgG; also called mAb 2-D11; 2-D11 anti-human RYK-Alexa647 conjugated mAb
[1]
  MFIR (MFI ratio to isotype control): 2.2
[2]
  MFIR (MFI ratio to isotype control): 2.5
[3]
  binding result: no binding
[4]
  MFIR (MFI ratio to isotype control): 2
[5]
  MFIR (MFI ratio to isotype control): 1
[6]
  MFIR (MFI ratio to isotype control): 1.1
